B1: IL6RPMP108D2 (VHH)
VHH: EVQLVESGGGLVQAGGSLRLSCAASGFTFDDYDIGWFRQAPGKEREGVSGISSSDGNTYYADSVKGRFTISSDNAKNTVYLQMNSLKPEDTAVYYCAAEPPDSSWYLDGSPEFFKYWGQGTQVTVSS
B2: IL6RPMP101D2 (VHH)
VHH: EVQMVESGGGLVQAGGSLRLSCAASGFAFDDYAIGWFRQAPGKEREGVSSISSSNGNTYYADSVRGRFTISSDNAKNTVYLQMNSLKPEDAGVYYCAAIWGIFFNEKMPVGAYDYWGQGTQVTVSS
B3: IL6RPMP120C11 (VHH)
VHH: EVQLVESGGGLVQAGGSLSLSCATSGRTISDDTMAWFRQAPGKEREFVATITFSGARTHYSDSVRDRFTISRDNAKNTVYLQMNSLKSEDTAVYYCAASTKYYSSTYNYIHPAFYDIWGQGTQVTVSS
B4: IL6RPMP105E11 (VHH)
VHH: EVQLVESGGGLVQAGGSLRLSCAASGFAFDDYAIGWFRQAPGKEREGVSSISSSNGNTYYADSVRGRFTISSDNAKNTVYLQMNGLKPEDTGVYYCAAIWGIFFNEKMPVGAYDYWGQGTQVTVSS
B5: IL6RPMP120B7 (VHH)
VHH: EVQLVESGGGLVQAGGSLSLSCATSGRTISDDTMAWFRQAPGKEREFVATITFSGARTHYSDSVRDRFTISRDNAKNTVYLQMNSLKSEDTAVYYCAASTKYYSSTYNYIHPAFYDIWGQGTQVTVSS
B6: IL6RPMP101E1 (VHH)
VHH: EVQLVESGGGLVQAGGSLRLSCAASGFAFDDYAIGWFRQAPGKEREGVSSISSSNGNTYYADSVRGRFTISSDNAKNTVYLQMNSLKPEDTGVYYCAAIWGIFFNEKMPVGAYDYWGQGTQVTVSS
B7: IL6RPMP100A10 (VHH)
VHH: EVQLVESGGGLVQAGGSLRLSCAASGRGFSPYTMGWFRQAPGKERVFVAGISWSTGIAHYTDSVKGRFTISRDNAKNTGSLQMNSLKPEDTAVYYCAVVQTTKGNYDYWGQGTQVTVSS
B8: IL6RPMP101F1 (VHH)
VHH: EVQLVESGGGLVQAGGSLRLSCAASGFAFDDYAIGWFRQAPGKEREGVSSISSSNGNTYYADSVRGRFTISSDNAKNTVYLQMNSLKPEDTGVYYCAAIWGIFFNEKMPVGAYDYWGQGTQVTVSS
B9: IL6RPMP101F3 (VHH)
VHH: EVQLVESGGGLVQAGGSLRLSCAASGFAFDDYAIGWFRQAPGKEREGVSSISSSNGNTYYADSVRGRFTISSDNAKNTVYLQMNSLKPEDTGVYYCAAIWGIFFNEKMPVGAYDYWGQGTQVTVSS
B10: IL6RPMP101H3 (VHH)
VHH: EVQLVESGGGLVQAGGSLRLSCAASGFAFDDYAIGWFRQAPGKEREGVSSISSSNGNTYYADSVRGRFTISSDNAKNTVYLQMNSLKPEDTGVYYCAAIWGIFFNEKMPVGAYDYWGQGTQVTVSS
B11: IL6RPMP101H6 (VHH)
VHH: EMQLVESGGGLVQAGGSLRLSCTASGRTFTDYDMGWFRQAPGKEREVVAIIDTNGDNTLTVGSVKGRFAISSDNAKNTVYLQMNSLLPEDTAVYTCAAGAWSALRRSVANYWGQGTQVTVSS
B12: IL6RPMP101A4 (VHH)
VHH: EVQLVESGGGTVQAGGSLKLSCAASGRTFTNYAMGWFRQAPGKEREFVAAIAYATHFADSVKGRFTISRGNAKNTVYLQMNSLKPEDAAVYYCAADLSLSKMVSKITSDMDYWGKGTLVTVSS
B13: IL6RPMP101G4 (VHH)
VHH: EVQLVESGGGLVQAGGSLRLSCAASGFAFDDYAIGWFRQAPGKEREGVSSISSSNGNTYYADSVRGRFTISSDNAKNTVYLQMNSLKPEDTGVYYCAAIWGIFFNEKMPVGAYDYWGQGTQVTVSS
B14: IL6RPMP105B8 (VHH)
VHH: EVQLVESGGGLVRAGGSLRLSCAASGFAFDDYAIGWFRQAPGKEREGVSSISSSNGNTYYADSVRGRFTISSDNAKNTVYLQMNSLKPEDTGVYYCAAIWGIFFNEKMPVGAYDYWGQGTQVTVSS
B15: IL6RPMP101D1 (VHH)
VHH: EVQLVESGGGLVQAGGSLRLSCTASGRTFSDYDMGWFRQAPGKERECVAIIDTNGDNTLIVGSVKGRFAISSDNAKNTVYLQMNSLLPEDTAVYTCAAGVWSSLRHTAANYWGQGTQVTVSS
B16: IL6RPMP107H2 (VHH)
VHH: KVQLVESGGGLVQPGGSLRLSCAASGFTFSSYAMSWVRRAPGKGLEWVSAINSDGTGSSYAPFVTGRFTASRDNAKNTLYLQMNSLKPEDTAVYYCTNSNRYDYADFSAVRGQGTQVTVSS
B17: IL6RPMP108D1 (VHH)
VHH: EVQLVESGGGLVQAGGSLRLSCTASGRTFSDYDMGWFRQAPGKERECVAVIDTNGDNTLTVGSVKGRFAISRDNAKNTVYLQMNSLLPEDTAVYTCAAGAWSSLRSTAANYWGQGTKVTVSS
B18: IL6RPMP119A10 (VHH)
VHH: EVQLVESGGGLVQPGGSLRLSCAASKSIFDINAMYWHRQAPGKQRESVASITSGGMRNYADSVKDRFTISKDNAKNTVYLQMNGLKPDDTAVYYCGLGRYEGGVWRDYWGQGTQVTVSS
B19: IL6RPMP107H5 (VHH)
VHH: EVPLVESGGGLVQAGGSLNLSCNASGDIGSINAMGWYRQAPGQQREWVAVITDTDSTIYPDSVKGRFAISRDGAKNTVHLRMSSLKPEDTAVYYCNAYQAGWGDYWGQGTQVTVSS
B20: IL6RPMP100A6 (VHH)
VHH: EVQLVESGGGLVQAGDSLRLSCLASGRSFKDDAMGWFRQAPGKEREFVSGIDWRGNIVDAESVKGRFTISRENAKNTLYLQMNHLKPEDTAVYYCAASSVFSDLRYRKNPKYWGQGTQVTVSS
B21: IL6RPMP108D10 (VHH)
VHH: EVQLVESGGGSVQAGGSLRLSCTASGRTFSDYDMGWFRQAPGKERECVAVIDTNGDNTLTVGSVKGRFAISRDNAKNTVYLQMNSLLPEDTAVYTCAAGAWSSLRSTAANYWGQGTQVTVSS
B22: IL6RPMP106B2 (VHH)
VHH: EVQLVESGGGLVQAGGSLRLSCAASGSIFRINAMGWYRQAPGKQRELVAAAISGGSTNYADFVKGRFTISRDNAKNTVYLQMNSLKPEDTAVYYCNALVVSHNYSDYVPFPDDYWGQGTQVTVSS
B23: IL6RPMP101A5 (VHH)
VHH: EVQLVESGGGLVQAGGSLRLSCTASGRTFSDYDMGWFRQAPGKERECVAIIDTNGDNTLIVGSVKGRFAISSDNAKNTVYLQMNSLLPEDTAVYTCAAGVWSSLRHTAANYWGQGTQVTVSS
B24: IL6RPMP101C2 (VHH)
VHH: EVQLVESGGGLVQAGGSLRLSCTASGRTFSDYDMGWFRQAPGKERECVAIIDTNGDNTLIVGSVKGRFAISSDNAKNTVYLQMNSLLPEDTAVYTCAAGVWSSLRHTAANYWGQGTQVTVSS

What was measured:
[1] = target: soluble IL-6R in cynomolgous plasma (cynomolgus monkey, UniProt A0A2K5WN54); experiment: ELISA 2, periplasmic extract; competitor IL-6; cyno plasma
Description: (§1) In this ELISA, plasma was used as a source of native soluble IL-6R. By this assay, we aimed to confirm the alphascreen results and to get a view on the cross-reactivity of the clones towards cynomolgous IL-6R. Human plasma (ELISA 1 and ELISA 3) or cynomolgous plasma (ELISA 2) were pre-incubated with a dilution of the periplasmic extract of the clones together with human IL-6 (50 ng/mL). Subsequently, plasma soluble IL-6R was captured on a B-N12 coated plate and bound IL-6 was detected using anti-IL-6 antibody BAF206 and streptavidin-HRP (ELISA 1 and ELISA 2). The ELISA signal dropped when the Nanobody clone could compete with IL-6 for binding to soluble IL-6R. ELISA 3 was a parallel ELISA in which the detection antibody was replaced by anti-IL-6R antibody BAF227 to exclude false positive competitors, which actually compete with B-N12 (e.g. family 2). Depicted in Table C-5 is the ratio of the OD450 value of the test sample versus the blank OD450 (mock sample). Clones were ordered based on ELISA 1 data.

[2] = target: T1, native soluble IL-6R in human plasma (human, UniProt P08887); experiment: ELISA 3, periplasmic extract; competitor BN-12; human plasma
Description: as §1

[3] = target: T1, native soluble IL-6R in human plasma; experiment: ELISA 1, periplasmic extract; competitor IL-6; human plasma
Description: as §1

Row | Binder | OD450 ratio sample/blank [1] | OD450 ratio sample/blank [2] | OD450 ratio sample/blank [3]
1 | B1 | 0.345 | 0.916 | 0.0624
2 | B2 | 0.822 | 0.977 | 0.124
3 | B3 | 0.296 | 0.988 | 0.673
4 | B4 | 0.691 | 0.971 | 0.679
5 | B5 | 0.299 | 1.03 | 0.714
6 | B6 | 0.805 | 0.947 | 0.716
7 | B7 | 0.189 | 0.97 | 0.748
8 | B8 | 0.829 | 0.957 | 0.754
9 | B9 | 0.822 | 0.984 | 0.758
10 | B10 | 0.859 | 0.954 | 0.772
11 | B11 | 0.713 | 0.954 | 0.788
12 | B12 | 0.713 | 0.99 | 0.792
13 | B13 | 0.815 | 1.02 | 0.796
14 | B14 | 0.816 | 1.03 | 0.808
15 | B15 | 0.79 | 0.928 | 0.812
16 | B16 | 0.6 | 0.962 | 0.865
17 | B17 | 0.79 | 1.04 | 0.87
18 | B18 | 0.249 | 0.989 | 0.877
19 | B19 | 0.997 | 1.03 | 0.901
20 | B20 | 0.722 | 0.923 | 0.948
21 | B21 | 0.761 | 1.03 | 0.961
22 | B22 | 1.02 | 0.984 | 0.99
23 | B23 | 0.736 | 0.95 | 1.03
24 | B24 | 1.03 | 0.952 | 1.04

From patent US10618964B2, “Nanobody against IL-6R” (Ablynx N.V., dated 2020)
